Measurements from IntAct's records for PubMed 24165923.

B1: R-spondin-1 (Homo sapiens), Q2MKA7 (parent)
chain: MRLGLCVVALVLSWTHLTISSRGIKGKRQRRISAEGSQACAKGCELCSEVNGCLKCSPKLFILLERNDIRQVGVCLPSCPPGYFDARNPDMNKCIKCKIEHCEACFSHNFCTKCKEGLYLHKGRCYPACPEGSSAANGTMECSSPAQCEMSEWSPWGPCSKKQQLCGFRRGSEERTRRVLHAPVGDHAACSDTKETRRCTVRRVPCPEGQKRRKGGQGRRENANRNLARKESKEAGAGSRRRKGQQQQQQQGTVGPLTSAGPA

Variants of: B1
Conditions: with znrf3_human ZNRF3, Q9ULT6
znrf3_human ZNRF3, Q9ULT6, sequence (Q9ULT6 whole entry): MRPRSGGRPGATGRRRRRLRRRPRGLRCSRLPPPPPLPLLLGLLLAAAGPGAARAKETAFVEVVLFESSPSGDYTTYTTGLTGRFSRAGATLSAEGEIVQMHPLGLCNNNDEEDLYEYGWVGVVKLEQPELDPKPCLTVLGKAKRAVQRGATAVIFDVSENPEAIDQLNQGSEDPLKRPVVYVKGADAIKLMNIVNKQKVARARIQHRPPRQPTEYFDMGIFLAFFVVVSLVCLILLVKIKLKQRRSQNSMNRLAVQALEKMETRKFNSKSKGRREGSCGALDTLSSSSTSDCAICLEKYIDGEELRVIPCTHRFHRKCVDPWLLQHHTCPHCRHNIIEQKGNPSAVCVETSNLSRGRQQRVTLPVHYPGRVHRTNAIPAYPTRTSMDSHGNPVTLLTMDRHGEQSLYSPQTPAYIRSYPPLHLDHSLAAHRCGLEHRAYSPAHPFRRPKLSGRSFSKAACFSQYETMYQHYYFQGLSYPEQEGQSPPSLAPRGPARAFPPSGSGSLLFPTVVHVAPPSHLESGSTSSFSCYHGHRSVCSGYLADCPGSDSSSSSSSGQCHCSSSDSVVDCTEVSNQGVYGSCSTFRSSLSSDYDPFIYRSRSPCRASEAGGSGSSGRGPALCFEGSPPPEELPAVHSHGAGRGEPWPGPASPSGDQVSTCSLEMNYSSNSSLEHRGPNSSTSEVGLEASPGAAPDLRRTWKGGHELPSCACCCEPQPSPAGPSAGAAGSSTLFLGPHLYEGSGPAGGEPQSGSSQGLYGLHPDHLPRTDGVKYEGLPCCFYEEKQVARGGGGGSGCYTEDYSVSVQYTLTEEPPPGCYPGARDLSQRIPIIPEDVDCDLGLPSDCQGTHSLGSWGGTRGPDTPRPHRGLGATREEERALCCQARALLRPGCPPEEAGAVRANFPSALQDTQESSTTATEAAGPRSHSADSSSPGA

Row | effect of a mutation on the interaction | Variant
1 | disrupting interaction | MRLGLCVVALVLSWTHLTISSRGIKGKRQRRISAEGSQACAKGCELCSEVNGCLKCSPKLFILLEANDIRQVGVCLPSCPPGYFDARNPDMNKCIKCKIEHCEACFSHNFCTKCKEGLYLHKGRCYPACPEGSSAANGTMECSSPAQCEMSEWSPWGPCSKKQQLCGFRRGSEERTRRVLHAPVGDHAACSDTKETRRCTVRRVPCPEGQKRRKGGQGRRENANRNLARKESKEAGAGSRRRKGQQQQQQQGTVGPLTSAGPA [R66A]
